Values of other authors, collected in patent EP3906935A1, “PEPTIDES FOR PREVENTING OR TREATING VIRAL INFECTIONS” (SORBONNE UNIVERSITE, priority 2020, dated 2021).

Conditions: N- and C-protected peptide; experimental data reported by Zhou et al.

## Ac-EAEKAAKEAEKAAKEAEK-NH2 [SEQ ID NO: 146, peptide of eighteen residues with N- and C-protected extremities previously built by Zhou et al]
  content of amphipathic helical structure in solution: 65%
